Measured values published in paper PMC9445180.

Target: HTRA1^PD + 7-mer ABP (purified covalent complex of HTRA1^PD and biotin-DPMFKLV-phosphonate) (human) (UniProt Q92743)
Assay: SPR; His6-tagged HTRA proteins (about 200 RU) captured with the His-capture kit on a CM5 chip, Fab15H6.v4 as analyte, single-cycle kinetics, three-fold dilutions from 1 nM or 1 μM; absence of binding verified with 3 μM Fab; Biacore S200, 25 °C, HBS-EP; 1:1 Langmuir model

Chain of HTRA1^PD + 7-mer ABP (purified covalent complex of HTRA1^PD and biotin-DPMFKLV-phosphonate) (human) (Q92743 161-379, one chain of several): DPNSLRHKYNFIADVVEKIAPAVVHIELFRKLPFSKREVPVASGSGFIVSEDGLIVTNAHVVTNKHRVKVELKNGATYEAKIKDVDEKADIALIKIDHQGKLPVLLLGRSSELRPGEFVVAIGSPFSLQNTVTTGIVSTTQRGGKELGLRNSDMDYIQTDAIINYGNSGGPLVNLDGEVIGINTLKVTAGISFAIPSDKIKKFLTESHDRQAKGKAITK

Kd: 0.21 nM
B1: Fab15H6.v4 (Fab, V domains shown)
VH: EVQLVQSGAEVKKPGASVKVSCKASGYKFTDSEMHWVRQAPGQGLEWIGGVDPETEGAAYNQKFKGRATITRDTSTSTAYLELSSLRSEDTAVYYCTRGYDYDYALDYWGQGTLVTVSS
VL: DIQMTQSPSSLSASVGDRVTITCRASSSVEFIHWYQQKPGKAPKPLISATSNLASGVPSRFSGSGSGTDFTLTISSLQPEDFATYYCQQWSSAPWTFGQGTKVEIK
